{"source": "patent US12616740B2", "about": "“Methods of using a GIP/GLP1 co-agonist for therapy” (ELI LILLY AND COMPANY, priority 2018, dated 2026)", "assay_type_in_all_cases": "in vivo, human", "key": {"[1]": {"system": "patients with T2DM who have inadequate glycemic control", "assay": "Phase 2 clinical study NCT03131687 (26 weeks): patients reaching HbA1c target", "conditions": "dulaglutide 1.5 mg once weekly", "description": "(§1) Clinical Study (NCT03131687) Supporting Maintenance Dose Embodiments A 6-month (26-week) Phase 2 double-blind clinical study is designed to evaluate the safety, efficacy, and PK/PD of 4 dose levels (1 mg, 5 mg, 10 mg and 15 mg respectively) of tirzepatide once weekly by subcutaneous injection compared with dulaglutide 1.5 mg. once weekly (QW) and placebo QW in patients with T2DM who have inadequate glycemic control with diet and exercise with or without a stable dose of metformin. Tirzepatide dose is up-titrated to the maintenance dose using the following weekly dose increments:\n(§2) The study also has a 4-week follow up period. In addition to safety and efficacy for treating T2DM, efficacy endpoints include the effect of tirzepatide on HbA1c, FBG, body weight, lipids, and waist circumference compared with placebo and with dulaglutide 1.5 mg. The study also evaluates the effect of tirzepatide on GI tolerability, hypoglycemia, hypersensitivity reactions, and pancreatic safety, as well as the development of treatment-emergent anti-drug antibodies. Model-based dose response analyses are performed to predict potential for significant HbA1c lowering and weight loss in longer studies. Statistical Analyses: Efficacy: The primary efficacy outcome of HbA1c change from baseline to the 26-week endpoint is analyzed using a Bayesian dose-response model. Analyses are performed on the intention to treat population (mITT) analysis set. Supportive analysis of the primary efficacy outcome for the mITT dataset are the model for post-baseline measures (MMRM) with body mass index (BMI) (<30 kg/m^2, ≥30 kg/m^2), metformin use, treatment, visit, and treatment-by-visit interaction as fixed effects, baseline HbA1c as a covariate, and patient as a random effect. The mean weight change from baseline at 12 and 26 weeks, along with the mean change from baseline of HbA1c at 12 weeks, is analyzed using similar dose-response models as the primary analyses. The percentages of patients with ≥5% or ≥10% body weight loss, reaching the HbA1c target of ≤6.5% or ≤7.0% at 26 weeks, or requiring rescue therapy are analyzed using logistic regression with fixed effects of treatment and strata, and baseline as a covariate. The changes from baseline in FBG (fasting blood glucose), SMBG (self-monitored blood glucose) levels, waist circumference, and mean percentage change in lipids from baseline to 12 and 26 weeks are analyzed using a similar MMRM to the one used for the primary analyses. Table Abbreviations: Dula 1.5 mg=dulaglutide 1.5 mg once weekly; LY means tirzepatide, and LY 1 mg=tirzepatide 1 mg once weekly; LY 5 mg=5 mg once weekly; LY 10 mg=escalation dose group tirzepatide once weekly with highest dose of 10 mg; LY 15 mg=escalation dose group of tirzepatide once weekly with highest dose 15 mg; LOCF=last observation-carried-forward; N=number of patients; pbo=placebo; Week 26=mITT on-treatment data at Week 26 excluding data after study drug discontinuation or rescue drug initiation; mITT=modified intent-to-treat; SD=standard deviation. For Table 4, n=number of patients in the population with baseline and post-baseline value at the specified time point. For Table 6, LY10 mg=escalation dose group tirzepatide, once weekly with highest dose of 10 mg; escalation dose: (5 mg weeks 0 and 1), LY15 mg=escalation dose group tirzepatide, once weekly with highest dose of 15 mg; escalation dose: (5 mg weeks 0 and 1; 10 mg weeks 2 to 5); N=number of patients in specified group, m=number of patients who experienced new event during interval, FolUp=follow up, T/Wk=Time range, (week) and %=means percent patients spending at least some time in treatment group who experienced new event during interval. For Table 7, n is the number of patients with events meeting the criteria; N is number of patients in the population; % is percent of patients in treatment group experiencing the event."}, "[2]": {"system": "patients with T2DM who have inadequate glycemic control", "assay": "NCT03131687: mean fasting glucose at Week 26", "set-up": "Mean change from baseline, fasting glucose: unit not given here", "conditions": "dulaglutide 1.5 mg once weekly, N 46", "description": "as §1, §2"}, "[3]": {"assay": "NCT03131687: weight loss at Week 26", "conditions": "dulaglutide 1.5 mg once weekly", "description": "as §1, §2"}, "[4]": {"assay": "NCT03131687: decrease appetite (reported event)", "conditions": "dulaglutide 1.5 mg once weekly, N = 54", "description": "as §1, §2"}, "[5]": {"assay": "NCT03131687: nausea, vomiting and diarrhea, new events per interval", "conditions": "dulaglutide 1.5 mg once weekly, N = 54", "description": "as §1, §2"}, "[6]": {"conditions": "second line, analysis set not given (not LOCF)"}}}
{"substance": "dulaglutide [reference compound]", "values": [{"measurement": "% of Patients Reaching HbA1c Target <5.7%", "setting": "[1]; LOCF Week 26 (N = 54)", "value": 1.9, "unit": "%"}, {"measurement": "% of Patients Reaching HbA1c Target <6%", "setting": "[1]; LOCF Week 26 (N = 54)", "value": 11.1, "unit": "%"}, {"measurement": "odds ratio vs. placebo, Patients Reaching HbA1c Target <5.7%", "setting": "[1]; LOCF Week 26 (N = 54)", "value": 1.0}, {"measurement": "odds ratio vs. placebo, Patients Reaching HbA1c Target <6%", "setting": "[1]; LOCF Week 26 (N = 54)", "value": 4.5}, {"measurement": "% of Patients Reaching HbA1c Target <5.7%", "setting": "[1]; mITT Week 26 (N = 47)", "value": 2.1, "unit": "%"}, {"measurement": "% of Patients Reaching HbA1c Target <6%", "setting": "[1]; mITT Week 26 (N = 47)", "value": 12.8, "unit": "%"}, {"measurement": "odds ratio vs. placebo, Patients Reaching HbA1c Target <5.7%", "setting": "[1]; mITT Week 26 (N = 47)", "value": 0.89}, {"measurement": "odds ratio vs. placebo, Patients Reaching HbA1c Target <6%", "setting": "[1]; mITT Week 26 (N = 47)", "value": 4.5}, {"measurement": "Mean change from baseline, fasting glucose", "setting": "[2]", "value": "−34.9"}, {"measurement": "Mean glucose value (fasting)", "setting": "[2]", "value": 140.5, "unit": "mg/dL"}, {"measurement": "% of Patients Achieving Weight loss ≥10%", "setting": "[3]; LOCF", "value": 9.3, "unit": "%"}, {"measurement": "odds ratio vs. placebo, Weight loss ≥10%", "setting": "[3]; LOCF", "value": 11.7}, {"measurement": "% of Patients Achieving Weight loss ≥10%", "setting": "[3]; [6]", "value": 10.6, "unit": "%"}, {"measurement": "% of Patients Achieving Weight loss ≥15%", "setting": "[3]; [6]", "value": 2.1, "unit": "%"}, {"measurement": "odds ratio vs. placebo, Weight loss ≥10%", "setting": "[3]; [6]", "value": 10.4}, {"measurement": "Decrease Appetite (reported): n, number of patients with events", "setting": "[4]", "value": "n = 3;"}, {"measurement": "Decrease Appetite (reported): percent of patients in treatment group experiencing the event", "setting": "[4]", "value": 5.6, "unit": "%"}, {"measurement": "Nausea Vomiting and Diarrhea: % patients who experienced new event during interval", "setting": "[5]; Fol Up (follow up)", "value": 5.9, "unit": "%"}, {"measurement": "Nausea Vomiting and Diarrhea: m, number of patients who experienced new event during interval", "setting": "[5]; Fol Up (follow up)", "value": 3}, {"measurement": "Nausea Vomiting and Diarrhea: % patients who experienced new event during interval", "setting": "[5]; T/Wk 0", "value": 22.2, "unit": "%"}, {"measurement": "Nausea Vomiting and Diarrhea: m, number of patients who experienced new event during interval", "setting": "[5]; T/Wk 0", "value": 12}, {"measurement": "Nausea Vomiting and Diarrhea: % patients who experienced new event during interval", "setting": "[5]; T/Wk 1", "value": 3.7, "unit": "%"}, {"measurement": "Nausea Vomiting and Diarrhea: m, number of patients who experienced new event during interval", "setting": "[5]; T/Wk 1", "value": 2}, {"measurement": "Nausea Vomiting and Diarrhea: % patients who experienced new event during interval", "setting": "[5]; T/Wk 2", "value": 0.0, "unit": "%"}, {"measurement": "Nausea Vomiting and Diarrhea: m, number of patients who experienced new event during interval", "setting": "[5]; T/Wk 2", "value": 0}, {"measurement": "Nausea Vomiting and Diarrhea: % patients who experienced new event during interval", "setting": "[5]; T/Wk 3", "value": 3.8, "unit": "%"}, {"measurement": "Nausea Vomiting and Diarrhea: m, number of patients who experienced new event during interval", "setting": "[5]; T/Wk 3", "value": 2}, {"measurement": "Nausea Vomiting and Diarrhea: % patients who experienced new event during interval", "setting": "[5]; T/Wk 4", "value": 1.9, "unit": "%"}, {"measurement": "Nausea Vomiting and Diarrhea: m, number of patients who experienced new event during interval", "setting": "[5]; T/Wk 4", "value": 1}, {"measurement": "Nausea Vomiting and Diarrhea: % patients who experienced new event during interval", "setting": "[5]; T/Wk 5", "value": 0.0, "unit": "%"}, {"measurement": "Nausea Vomiting and Diarrhea: m, number of patients who experienced new event during interval", "setting": "[5]; T/Wk 5", "value": 0}, {"measurement": "Nausea Vomiting and Diarrhea: % patients who experienced new event during interval", "setting": "[5]; T/Wk 6", "value": 0.0, "unit": "%"}, {"measurement": "Nausea Vomiting and Diarrhea: m, number of patients who experienced new event during interval", "setting": "[5]; T/Wk 6", "value": 0}, {"measurement": "Nausea Vomiting and Diarrhea: % patients who experienced new event during interval", "setting": "[5]; T/Wk 7", "value": 1.9, "unit": "%"}, {"measurement": "Nausea Vomiting and Diarrhea: m, number of patients who experienced new event during interval", "setting": "[5]; T/Wk 7", "value": 1}, {"measurement": "Nausea Vomiting and Diarrhea: % patients who experienced new event during interval", "setting": "[5]; T/Wk 8", "value": 0.0, "unit": "%"}, {"measurement": "Nausea Vomiting and Diarrhea: m, number of patients who experienced new event during interval", "setting": "[5]; T/Wk 8", "value": 0}, {"measurement": "Nausea Vomiting and Diarrhea: % patients who experienced new event during interval", "setting": "[5]; T/Wk 9", "value": 1.9, "unit": "%"}, {"measurement": "Nausea Vomiting and Diarrhea: m, number of patients who experienced new event during interval", "setting": "[5]; T/Wk 9", "value": 1}, {"measurement": "Nausea Vomiting and Diarrhea: % patients who experienced new event during interval", "setting": "[5]; T/Wk 10", "value": 0.0, "unit": "%"}, {"measurement": "Nausea Vomiting and Diarrhea: m, number of patients who experienced new event during interval", "setting": "[5]; T/Wk 10", "value": 0}, {"measurement": "Nausea Vomiting and Diarrhea: % patients who experienced new event during interval", "setting": "[5]; T/Wk 11", "value": 0.0, "unit": "%"}, {"measurement": "Nausea Vomiting and Diarrhea: m, number of patients who experienced new event during interval", "setting": "[5]; T/Wk 11", "value": 0}, {"measurement": "Nausea Vomiting and Diarrhea: % patients who experienced new event during interval", "setting": "[5]; T/Wk 12", "value": 2.0, "unit": "%"}, {"measurement": "Nausea Vomiting and Diarrhea: m, number of patients who experienced new event during interval", "setting": "[5]; T/Wk 12", "value": 1}, {"measurement": "Nausea Vomiting and Diarrhea: % patients who experienced new event during interval", "setting": "[5]; T/Wk >12 < 16", "value": 3.9, "unit": "%"}, {"measurement": "Nausea Vomiting and Diarrhea: m, number of patients who experienced new event during interval", "setting": "[5]; T/Wk >12 < 16", "value": 2}, {"measurement": "Nausea Vomiting and Diarrhea: % patients who experienced new event during interval", "setting": "[5]; T/Wk >16 ≤ 20", "value": 2.0, "unit": "%"}, {"measurement": "Nausea Vomiting and Diarrhea: m, number of patients who experienced new event during interval", "setting": "[5]; T/Wk >16 ≤ 20", "value": 1}, {"measurement": "Nausea Vomiting and Diarrhea: % patients who experienced new event during interval", "setting": "[5]; T/Wk >20", "value": 7.8, "unit": "%"}, {"measurement": "Nausea Vomiting and Diarrhea: m, number of patients who experienced new event during interval", "setting": "[5]; T/Wk >20", "value": 4}]}
